Reference: patent publication US20180186880A1 (TRELLIS BIOSCIENCE, published 2018)

Target: T1, TIM-3 ECD (extracellular domain of T cell immunoglobulin and mucin domain 3 protein) (UniProt Q8TDQ0 22-202, limits assumed)
T1 construct: extracellular domain; also called CD366
T1 sequence (looked up): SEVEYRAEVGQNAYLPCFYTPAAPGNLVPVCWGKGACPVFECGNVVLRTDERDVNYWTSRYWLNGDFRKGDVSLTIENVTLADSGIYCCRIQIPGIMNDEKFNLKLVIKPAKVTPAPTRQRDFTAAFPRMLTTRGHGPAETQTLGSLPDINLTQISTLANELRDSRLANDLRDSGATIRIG
Assay: adsorption ELISA on TIM-3 ECD, serial dilutions of purified mAb, estimate of binding affinity
Procedure: Purified mAbs were tested in adsorption ELISA using TIM-3 ECD, generated by Trellis in mammalian cells.

Binder	Affinity [nM]
TRL6042 (antibody, V domains shown, Native human mAb produced recombinantly; Kappa light chain; also called TIM-3 TRLmAb 6042) VH: QVQLVESGAEVKKPGESLKISCEGSGYKFTSYWIGWVRQMPGRGPEWMGLIYPSDSDTRYSPSFRGQVTISVDKTISTAYLQWSSLKTSDTAIYYCARLLLATECTSDSCFGDAFDIWGQGTMVTVSS VL: DIVLTQSPTFLSASVGDRVTITCRASQGISSYLAWYQQKPGKAPKLLLYAASTLQSGVPSRFSGSRSGTEFTLTISSLQPEDFASYYCQQFHNYPFTFGGGTKVEIKR	5
TRL6061 (antibody, V domains shown, Lambda light chain) VH: QVQLVESGGGVVQPGRSLRLSCAASGFMFSTSAMHWVRQTPGKGLEWLAVIWHDGSEKYYADSVKGRFSISRDNYRDTLYLQMNNLRVEDTAIYYCRGGDVYEIWGQGTMVAVSS VL: DDIMLTQPPSVSVSPGQTARITCSGDAVAKRYVYWYQQKSGQAPVLVMYEDNKRPSGIPERFSGSSSGTKATLTITGALVEDEADYYCYSTDSSGNLGAFGGGSKLTVL	0.005
TRL6099 (antibody, V domains shown, Lambda light chain) VH: QVQLVESGAEVKKPGASVKVSCKAFNYTFTSYGISWVRQTPEHGLEWMGWITNSNSNSAQKFQGRVSMTTDTSTSTAYMQLRSLSSDDTAVYYCARIYIDYNNYGLDVWGQGTTVTVSS VL: not shown	0.011
TRL6120 (antibody, V domains shown, Lambda light chain; also called TIM-3 TRLmAb 6120) VH: QVQLVESGGGVVQPGRSLRLSCVASGFIFRTYAMHWVRQAPGKGLEWVAVIWPDGSERYYSDSTKGRFTVSRDNSKNTLFLQMNSLRVDDTAMYYCFARGYSDSDYADHWGRGTRVTVSS VL: DIVMTQSPSVSVSPGQTARITCSGDALSTKFAYWYQQKSGQAPVLVIYEDNKRPSGIPERFSGSGSGTMATLSVSEAQVEDEADYYCFSSDSSGNLFMFGGGTKLTVL	28
